Measured values as given in article PMC3902904, “Intrinsically disordered regions of nucleophosmin/B23 regulate its RNA binding activity through their inter- and intra-molecular association” (Nucleic Acids Research, 2013).
Blank lines part the entries; values can stand above or below the molecule they belong to.

Experiments:
GST-B23.1-CR (human) = test: GST pull-down; conditions: total RNA, 300 mM NaCl wash; Sucrose gradient 15-40%, 5 µg protein with 10 µg 293T total RNA (buffer not given in the material); GST pull-down 2 µg protein, 5 µg total RNA, wash 300 mM …
GST-B23.1-CRD (human) = test: GST pull-down; conditions: total RNA, 300 mM NaCl wash; Sucrose gradient 15-40%, 5 µg protein with 10 µg 293T total RNA (buffer not given in the material); GST pull-down 2 µg protein, 5 µg total RNA, wash 300 mM …
His-B23.1-ΔN (human) = His-B23.1-ΔN (human) (UniProt P06748); test: cross-linking; 0.1% glutaraldehyde, 10 min, room temperature, 20 mM Hepes-NaOH pH 7.9, 50 mM NaCl; SDS-PAGE, CBB staining; increased protein concentration (3.0 and 4.5 µM; lanes 5 and 6 at 4.5 µM)
GST-B23.1-CRA = molecular target: T1, GST-B23.1-CRA (human, UniProt P06748 189-294, threonine 199 replaced with alanine (A) | threonine 219 replaced with alanine …); test: native gel or EMSA; GST-B23.1-A (0.5 µg) mixed with increasing amounts (0.5, 1.0, 2.0, 4.0 µg) of the other GST-tagged fragment in 10 µl buffer H, 30 min, room temperature; 6% native PAGE in 0.5x TBE, CBB staining; conditions: both partners purified
T1 construct: nucleophosmin NPM1/B23, variant B23.1, human, B23.1-CR with threonines 199, 219, 234 and 237 replaced with alanine; source: E. coli BL21 (DE3), purified (Glutathione sepharose, MNase-treated)
T1 sequence (P06748 other isoform, or with tags, fused parts or gaps with the stated changes): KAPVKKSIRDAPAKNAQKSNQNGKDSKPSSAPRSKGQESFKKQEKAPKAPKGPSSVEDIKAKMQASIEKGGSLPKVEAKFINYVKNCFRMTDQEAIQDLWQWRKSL

GST-B23.1-CR = molecular target: T2, GST-B23.1-CR (human, UniProt P06748 189-294); test: as above; conditions: both partners purified
T2 construct: nucleophosmin NPM1/B23, variant B23.1, human, basic IDR and CTD; amplified with the same forward primer as CR1 (which begins at 189, KAPVKK) and the T7 terminator primer; also called unphosphorylated GST-B23.1-CR; source: E. coli BL21 (DE3), purified (Glutathione sepharose, MNase-treated)
T2 sequence (P06748 189-294): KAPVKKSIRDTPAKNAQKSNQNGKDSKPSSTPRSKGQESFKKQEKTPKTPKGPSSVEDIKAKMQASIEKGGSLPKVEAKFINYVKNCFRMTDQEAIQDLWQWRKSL

GST-B23.1-CRD = molecular target: T3, GST-B23.1-CRD (human, UniProt P06748 189-294, threonine 199 replaced with aspartic acid (D) | threonine 219 replaced with …); test: as above; conditions: both partners purified
T3 construct: nucleophosmin NPM1/B23, variant B23.1, human, B23.1-CR with threonines 199, 219, 234 and 237 replaced with aspartic acid; also called phosphomimetic mutant; source: E. coli BL21 (DE3), purified (Glutathione sepharose, MNase-treated)
T3 sequence (P06748 other isoform, or with tags, fused parts or gaps with the stated changes): as the sequence (P06748 189-294) above, with T11D, T31D, T46D, T49D counted along it

GST-B23.1-CR1 = molecular target: T4, GST-B23.1-CR1 (human, UniProt P06748 189-259); test: as above; conditions: both partners purified
T4 construct: nucleophosmin NPM1/B23, variant B23.1, human, amino acids 189-259 (basic IDR); limits are printed for B23.1-CR1 in the CD experiment; also called bIDR; basic IDR; source: E. coli BL21 (DE3), purified (Glutathione sepharose, MNase-treated)
T4 sequence (P06748 189-259): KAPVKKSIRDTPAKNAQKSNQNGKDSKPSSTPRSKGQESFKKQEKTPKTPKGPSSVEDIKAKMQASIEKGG

Molecule: 18S rRNA
binding signal (% (reference)) (GST-B23.1-CR (human)): 100
binding signal (% of GST-B23.1-CR) (GST-B23.1-CRD (human)): 25

Molecule: 28S rRNA
binding signal (% (reference)) (GST-B23.1-CR (human)): 100
binding signal (% of GST-B23.1-CR) (GST-B23.1-CRD (human)): 35

Continued, values first:

stoichiometry N (His-B23.1-ΔN (human)): 2
Molecule: His-B23.1-ΔN (from UniProt P06748 120-294) (domain or fragment)

binding result (GST-B23.1-CRA): binds
binding result (GST-B23.1-CR): binds
binding result (GST-B23.1-CRD): binds
binding result (GST-B23.1-CR1): binds
B1: GST-B23.1-A (domain or fragment, human, UniProt P06748 120-188, looked up)
chain: EEDAESEDEEEEDVKLLSISGKRSAPGGGSKVPQKKVKLAADEDDDDDDEEDDDEDDDDDDFDDEEAEE
notes: nucleophosmin NPM1/B23, variant B23.1 (longest variant), human, amino acids 120-188 (acidic IDR); The construction of pGEX2T-B23.1-A is not described in the methods; also called GST-tagged B23-A; aIDR; source: E. coli BL21 (DE3), purified (Glutathione sepharose, MNase-treated)
